# Experimental data: US7109015B2, “Removal of N-terminal methionine from proteins by engineered methionine aminopeptidase” (Academia Sinica, priority 2004, dated 2006)
# Where “and” joins values, the source holds several entries; their conditions need not be identical. Identical values can stand only once.
# B1: MetAP-*TG (protein)
# chain: AISIKTPEDIEKMRVAGRLAAEVLEMIEPYVKPGVSTGELDRICNDYIVNEQHAVSACLGYHGYPKSVCISINEVVCHGIPDDAKLLKDGDIVNIDVTVIKDGFHGDTSKMFIVGKPTIMGERLCRITQESLYLALRMVKPGINLREIGAAIQKFVEAEGFSVVREYCGHGIGRGFHEEPQVLHYDSRETNVVLKPGMTFTIEPTVNAGKKEIRTMKDGWTVKTKDRSLSAGYEHTIVVTDNGCEILTLRKDDTIPAIISHDE
# Tested on: Met-tagged onconase
# Experiment: In vivo catalytic activity of MetAPs co-expressed with Met-tagged onconase in E. coli BL21(DE3); N-terminus by Edman degradation
# Format: cell-based
# Outline: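 Wild-type or mutant (Tyr168, Met206, Gln233) E. coli MetAP co-expressed with Met-tagged onconase in E. coli BL21(DE3). Insoluble onconase denatured, renatured and purified, or secreted via pelB and purified from medium. Stored in 20 mM sodium phosphate pH 7.0 for N-terminal pyroglutamate formation; N-terminus sequenced by Edman degradation.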
# [1] = substrate MAA-Onc, in vivo in E. coli
# [2] = substrate MAG-Onc, in vivo in E. coli
# [3] = substrate MAP-Onc, in vivo in E. coli
# [4] = substrate MLA-Onc, in vivo in E. coli
# [5] = substrate MLG-Onc, in vivo in E. coli
# [6] = substrate MLH-Onc, in vivo in E. coli
# [7] = substrate MLL-Onc, in vivo in E. coli
# [8] = substrate MLN-Onc, in vivo in E. coli
# [9] = substrate MLS-Onc, in vivo in E. coli
# [10] = substrate MLV-Onc, in vivo in E. coli
# [11] = substrate MQA-Onc, in vivo in E. coli
# [12] = substrate MQM-Onc, in vivo in E. coli
# [13] = substrate MQN-Onc, in vivo in E. coli
# [14] = substrate MQT-Onc, in vivo in E. coli
molecule,measurement,setting,value
B1,Lower efficiency of Met removal with MetAP and target on separate vectors,"MQD-initiated onconase or GST, pET29b/pET22b versus same vector",10–15 % less
same,Catalytic activity (%): percent of penultimate residue removed,[1],25%
same,Catalytic activity (%): removal of N-terminal Met,[1],100%
same,Catalytic activity (%): removal of N-terminal Met,"substrate MAD-Onc, in vivo in E. coli",99% and 100%
same,Catalytic activity (%): removal of N-terminal Met,"substrate MAE-Onc, in vivo in E. coli",96%
same,Catalytic activity (%): removal of N-terminal Met,"substrate MAF-Onc, in vivo in E. coli",100%
same,Catalytic activity (%): percent of penultimate residue removed,[2],57%
same,Catalytic activity (%): removal of N-terminal Met,[2],80%
same,Catalytic activity (%): removal of N-terminal Met,"substrate MAK-Onc, in vivo in E. coli",100%
same,Catalytic activity (%): removal of N-terminal Met,"substrate MAL-Onc, in vivo in E. coli",100%
same,Catalytic activity (%): removal of N-terminal Met,"substrate MAM-Onc, in vivo in E. coli",96%
same,Catalytic activity (%): removal of N-terminal Met,"substrate MAN-Onc, in vivo in E. coli",100%
same,Catalytic activity (%): percent of penultimate residue removed,[3],38%
same,Catalytic activity (%): removal of N-terminal Met,[3],72%
same,Catalytic activity (%): removal of N-terminal Met,"substrate MAQ-Onc, in vivo in E. coli",97%
same,Catalytic activity (%): removal of N-terminal Met,"substrate MAR-Onc, in vivo in E. coli",94%
same,Catalytic activity (%): removal of N-terminal Met,"substrate MAV-Onc, in vivo in E. coli",100%
same,Catalytic activity (%): removal of N-terminal Met,"substrate MDD-Onc, in vivo in E. coli",68%
same,Catalytic activity (%): removal of N-terminal Met,"substrate MED-Onc, in vivo in E. coli",33%
same,Catalytic activity (%): removal of N-terminal Met,"substrate MFA-Onc, in vivo in E. coli",2%
same,Catalytic activity (%): removal of N-terminal Met,"substrate MFD-Onc, in vivo in E. coli",5%
same,Catalytic activity (%): removal of N-terminal Met,"substrate MGD-Onc, in vivo in E. coli",95%
same,Catalytic activity (%): removal of N-terminal Met,"substrate MHD-Onc, in vivo in E. coli",92%
same,Catalytic activity (%): removal of N-terminal Met,"substrate MIA-Onc, in vivo in E. coli",36%
same,Catalytic activity (%): removal of N-terminal Met,"substrate MID-Onc, in vivo in E. coli",22%
same,Catalytic activity (%): removal of N-terminal Met,"substrate MKA-Onc, in vivo in E. coli",2%
same,Catalytic activity (%): removal of N-terminal Met,"substrate MKD-Onc, in vivo in E. coli",3%
same,Catalytic activity (%): percent of penultimate residue removed,[4],100(100) %
same,Catalytic activity (%): removal of N-terminal Met,[4],100(100) %
same,Catalytic activity (%): removal of N-terminal Met,"substrate MLD-Onc, in vivo in E. coli",86% and 90%
same,Catalytic activity (%): percent of penultimate residue removed,[5],100(100) %
same,Catalytic activity (%): removal of N-terminal Met,[5],100(100) %
same,Catalytic activity (%): percent of penultimate residue removed,[6],36%
same,Catalytic activity (%): removal of N-terminal Met,[6],75%
same,Catalytic activity (%): percent of penultimate residue removed,[7],24%
same,Catalytic activity (%): removal of N-terminal Met,[7],88%
same,Catalytic activity (%): removal of N-terminal Met,"substrate MLM-Onc, in vivo in E. coli",100%
same,Catalytic activity (%): percent of penultimate residue removed,[8],58%
same,Catalytic activity (%): removal of N-terminal Met,[8],92%
same,Catalytic activity (%): removal of N-terminal Met,"substrate MLP-Onc, in vivo in E. coli",5%
same,Catalytic activity (%): percent of penultimate residue removed,[9],59%
same,Catalytic activity (%): removal of N-terminal Met,[9],82%
same,Catalytic activity (%): removal of N-terminal Met,"substrate MLT-Onc, in vivo in E. coli",91%
same,Catalytic activity (%): percent of penultimate residue removed,[10],27%
same,Catalytic activity (%): removal of N-terminal Met,[10],76%
same,Catalytic activity (%): removal of N-terminal Met,"substrate MMD-Onc, first Met, in vivo in E. coli",100%
same,Catalytic activity (%): percent of penultimate residue removed,"substrate MMD-Onc, second Met, in vivo in E. coli",73%
same,Catalytic activity (%): removal of N-terminal Met,"substrate MND-Onc, in vivo in E. coli",85%
same,Catalytic activity (%): removal of N-terminal Met,"substrate MPD-Onc, in vivo in E. coli",93%
same,Catalytic activity (%): percent of penultimate residue removed,[11],100(100) %
same,Catalytic activity (%): removal of N-terminal Met,[11],100(100) %
same,Catalytic activity (%): removal of N-terminal Met,"substrate MQD-Onc, in vivo in E. coli",91% and 90%
same,Catalytic activity (%): removal of N-terminal Met,"substrate MQD-Onc, in vivo in E. coli, listed as MetAP-M206T-Q233G",91%
same,Catalytic activity (%): removal of N-terminal Met,"substrate MQDWL (SEQ ID NO:10)-Onc, solubility −, same vector",91%
same,Catalytic activity (%): removal of N-terminal Met,"substrate MQDWL (SEQ ID NO:10)-Onc, solubility −, target in pET22b co-transformed with MetAP in pET29b",80%
same,Catalytic activity (%): removal of N-terminal Met,"substrate MQE-Onc, in vivo in E. coli",71%
same,Catalytic activity (%): removal of N-terminal Met,"substrate MQF-Onc, in vivo in E. coli",80%
same,Catalytic activity (%): removal of N-terminal Met,"substrate MQK-Onc, in vivo in E. coli",78%
same,Catalytic activity (%): percent of penultimate residue removed,[12],59%
same,Catalytic activity (%): removal of N-terminal Met,[12],100%
same,Catalytic activity (%): percent of penultimate residue removed,[13],65%
same,Catalytic activity (%): removal of N-terminal Met,[13],100%
same,Catalytic activity (%): removal of N-terminal Met,"substrate MQP-Onc, in vivo in E. coli",25%
same,Catalytic activity (%): removal of N-terminal Met,"substrate MQR-Onc, in vivo in E. coli",83%
same,Catalytic activity (%): percent of penultimate residue removed,[14],26%
same,Catalytic activity (%): removal of N-terminal Met,[14],76%
same,Catalytic activity (%): removal of N-terminal Met,"substrate MQW-Onc, in vivo in E. coli",95%
same,Catalytic activity (%): removal of N-terminal Met,"substrate MRA-Onc, in vivo in E. coli",2%
same,Catalytic activity (%): removal of N-terminal Met,"substrate MRD-Onc, in vivo in E. coli",2%
same,Catalytic activity (%): removal of N-terminal Met,"substrate MSD-Onc, in vivo in E. coli",99%
same,Catalytic activity (%): removal of N-terminal Met,"substrate MTD-Onc, in vivo in E. coli",85%
same,Catalytic activity (%): removal of N-terminal Met,"substrate MVD-Onc, in vivo in E. coli",80%
same,Catalytic activity (%): removal of N-terminal Met,"substrate MWA-Onc, in vivo in E. coli",2%
same,Catalytic activity (%): removal of N-terminal Met,"substrate MWD-Onc, in vivo in E. coli",2%
same,Catalytic activity (%): removal of N-terminal Met,"substrate MWD-Onc, in vivo in E. coli, listed as *TG",inactive
same,Catalytic activity (%): removal of N-terminal Met,"substrate MYA-Onc, in vivo in E. coli",8%
same,Catalytic activity (%): removal of N-terminal Met,"substrate MYD-Onc, in vivo in E. coli",1%
same,Catalytic activity (%): removal of N-terminal Met,"substrate MYD-Onc, in vivo in E. coli, listed as *TG",inactive
